Results reported in the supplement of paper PMC12338614.
± gives the uncertainty stated by the source.

B1: library; numbered along this chain (parent)
chain: MEVVDPQQLGMFTEGELMSVGMDTFIHRIDSTEVIYQPRRKRAKLIGKYLMGDLLGEGSYGKVKEVLDSETLCRRAVKILKKKKLRRIPNGEANVKKEIQLLRRLRHKNVIQLVDVLYNEEKQKMYMVMEYCVCGMQEMLDSVPEKRFPVCQAHGYFCQLIDGLEYLHSQGIVHKDIKPGNLLLTTGGTLKISDLGVAEALHPFAADDTCRTSQGSPAFQPPEIANGLDTFSGFKVDIWSAGVTLYNITTGLYPFEGDNIYKLFENIGKGSYAIPGDCGPPLSDLLKGMLEYEPAKRFSIRQIRQHSWFRKKHPPAEAPVPIPPSPDTKDRWRSMTVVPYLEDLHGADEDEDLFDIEDDIIYTQDFTVPGQVPEEEASHNGQRRGLPKAVCMNGTEAAQLSTKSRAEGRAPNPARKACSASSKIRRLSACKQQ

Variants of: B1
Assay: STK11 functional score (HeLa growth suppression), rescaled enrichment; synonymous median = 1, nonsense median = 0 (normalised score)
Conditions: with HeLa; variant type: missense
Procedure, shortened: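 The values are functional scores: wild-type-corrected log ratios of post- versus pre-selection abundance, rescaled to synonymous and nonsense medians, merged over codons and replicate transfections, and carrying bootstrapped error. They derive from codon-randomised (POPCode), codon-optimised STK11 libraries that Bxb1 integrated at an AAVS1 landing pad in HeLa, with three transfections for each of three regions. Sequencing of tiled gDNA amplicons ran on NextSeq, at ~2 million reads per tile.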

Q: With MEVVDPQQLGMFTEGELMSVGMDTFIHRIDSTEVIYQPRRKRAKLIGKYLMGDLLGEGSYGKVKEVLDSETLCRRAVKILKKKKLRRIPNGEANVKKEIQLLRRLRHKNVIQLVDVLYNEEKQKMYMVMEYCVCGMQEMLDSVPEKRFPVCQAHGYFCQLIDGLEYLHSQGIVHKDIKPGNLLLTTGGTLKISDLGVAEALHPFAADDTCRTSQGSPAFQPPEIANGLDTFSYFKVDIWSAGVTLYNITTGLYPFEGDNIYKLFENIGKGSYAIPGDCGPPLSDLLKGMLEYEPAKRFSIRQIRQHSWFRKKHPPAEAPVPIPPSPDTKDRWRSMTVVPYLEDLHGADEDEDLFDIEDDIIYTQDFTVPGQVPEEEASHNGQRRGLPKAVCMNGTEAAQLSTKSRAEGRAPNPARKACSASSKIRRLSACKQQ [G233Y] as the variant, how does the STK11 functional score read?
A: 1.04 ± 0.94

Q: How did the STK11 functional score turn out when MEVVDPQQLGMFTEGELMSVGMDTFIHRIDSTEVIYQPRRKRAKLIGKYLMGDLLGEGSYGKVKEVLDSETLCRRAVKILKKKKLRRIPNGEANVKKEIQLLRRLRHKNVIQLVDVLYNEEKQKMYMVMEYCVCGMQEMLDSVPEKRFPVCQAHGYFCQLIDGLEYLHSQGIVHKDIKPGNLLLTTGGTLKISDLGVAEALHPFAADDTCRTSQGSPAFQPPEIANGLDTFSGFKVDIWSAGVTLYNITTGLYPFEGDNIYKLFENIGKGSYAIPGDCGPPLSDLLKGMLEYEPAKRFSIRQIRQHSWFRKKHPPAEAPVFIPPSPDTKDRWRSMTVVPYLEDLHGADEDEDLFDIEDDIIYTQDFTVPGQVPEEEASHNGQRRGLPKAVCMNGTEAAQLSTKSRAEGRAPNPARKACSASSKIRRLSACKQQ [P321F] was run?
A: 0.903 ± 0.49

Q: MEVVDPQQLGMFTEGELMSVGMDTFIHRIDSTEVIYQPRRKRAKLIGKYLMGDLLGEGSYGKVKEVLDSETLCRRAVKILKKKKLRRIPNGEANVKKEIQLLRRLRHKNVIQLVDVLYNEEKQKMYMVMEYCVCGMQEMLDSVPEKRFPVCQAHGYFCQLIDGLEYLHSQGIVHKDIKPGNLLLTTGGTLKISDLGVAEALHPFAADDTCRTSQGSPAFQPPEIANGLDTFSGFKVDIWSAGVTLYNITTGLYPFEGDNIYKLFENIGKGSYAIPGDCGPPLSDLLKGMLEYEPAKRFSIRQIRQHSWFRKKHPPAEAPVPIPPSPDTKDRWRSMTVVPYLEDLHGADEDEDLFDIEDDIIYTQDFTVPGQVPEEEASHNGQRRFLPKAVCMNGTEAAQLSTKSRAEGRAPNPARKACSASSKIRRLSACKQQ [G385F] was tested. Which STK11 functional score did it give?
A: 1.36 ± 0.46

Q: MEVVDPQQLGMFTEGELMSVGMDTFIHRIDSTEVIYQPRRKRAKLIGKYLMGDLLGEGSYGKVKEVLDSETLCRRAVKILKKKKLRRIPNGEANVKKEIQLLRRLRHKNVIQLVDVLYNEEKQKMYMVMEYCVCGMQEMLDSVPEKRFPVCQAHGYFCQLIDGLEYLHSQGIVHKDIKPGNLLLTTGGTLKISDLGVAEALHPFAADDTCRTSQGSPAFQPPEIANGLDTFSGFKVDIWSAGVTLYNITTGLYPFEGDNIYKLFENIGKGSYAIPGDCGPPLSDLLKGMLEYEPAKRFSIRQIRQHSWFRKKHPPAEAPVPIPPSPDTKDRWRSMTVVPYLEDLHGADEDEDLFDIEDDIIYTQDFTVPGQVPEEEASWNGQRRGLPKAVCMNGTEAAQLSTKSRAEGRAPNPARKACSASSKIRRLSACKQQ [H379W] was tested. Which STK11 functional score did it give?
A: 0.788 ± 0.29

Q: MEVVDPQQLGMFTEGELMSVGMDTFIHRIDSTEVIYQPRRKRAKLIGKYLMGDLLGEGSYGKVKEVLDSETLCRRAVKILKKKKLRRIPNGEANVKKEIQLLRRLRHKNVIQLVDVLYNEEKQKMYMVMEYCVCGMQEMLDSVPEKRFPVCQAHGYFCQLIDGLEYLHSQGIVHKDIKPGNLLLTTGGTLKISDLGVAEALHPFAADDTCRTSQGSPAFQPPEIANGLDTFSGFKVDIWSAGVTLYNITTGLYPFEGDNIYKLFENIGKGSYAIPGDCGPPLSDLLKGMLEYEPAKRFSIRQIRQHSWFRKKHPPAWAPVPIPPSPDTKDRWRSMTVVPYLEDLHGADEDEDLFDIEDDIIYTQDFTVPGQVPEEEASHNGQRRGLPKAVCMNGTEAAQLSTKSRAEGRAPNPARKACSASSKIRRLSACKQQ [E317W] was tested. Which STK11 functional score did it give?
A: 1.62 ± 0.16

Q: For MEVVDPQQLGMFTEGELMSVGMDTFIHRIDSTEVIYQPRRKRAKLIGKYLMGDLLGEGSYGKVKEVLDSETLCRRAVKILKKKKLRRIPNGEANVKKEIQLLRRLRHKNVIQLVDVLYNEEKQKMYMVMEYCVCGMQEMLDSVPEKRFPVCQAHGYFCQLIDGLEYLHSQGIVHKDIKPGNLLLTTGGTLKISDLGVAEALHPFAADDTCRTSQGSPAFQPPEIANGLDTFSGFKVDIWSAGVTLYNITTGLYPFEGDNIYKLFENIGKGSYAIPGDCGPPLSDLLKGMLEYEPAKRFSIRQIRQHSWFRKKHPPAEAPVPIPPSPDTKDRWRSMTVVPYLEDLHGADEDEDLFDIEDDIIYTQDFTVPGQVPEEEASHNGQRRGLPKAVCMNGTEWAQLSTKSRAEGRAPNPARKACSASSKIRRLSACKQQ [A397W], which STK11 functional score is on record?
A: 0.847 ± 0.43

Q: MEVVDPQQLGMFTEGELMSVGMDTFIHRIDSTEVIYQPRRKRAKLIGKYLMGDLLGEGSYGKVKEVLDSETLCRRAVKILKKKKLRRIPNGEANVKKEIQLLRRLRHKNVIQLVDVLYNEEKQKMYMVMEYCVCGMQEMLDSVPEKRFPVCQAHGYFCQLIDGLEYLHSQGIVHKDIKPGNLLLTTGGTLKISDLGVAEALHPFAADDTCRTSQGSPAFQPPEIANGLDTFSGFKVDIWSAGVTLYNITTGLYPFEGDNIYKLFENIGKGSYAIPGDCGPPLSDLLKGMLEYEPAKRFSIRQIRQHSWFRKKHPPAEAPVPIPPSPDTKDRWRSMTVVPYLEDLHGADEDEDLFDIEDDIIYTQDFTVPGQVPEEEASHNGQRRGLPKAVCMNGTEVAQLSTKSRAEGRAPNPARKACSASSKIRRLSACKQQ [A397V] was tested. Which STK11 functional score did it give?
A: 0.799 ± 0.24
